For test [1], the target named is T1, RNase H (Escherichia coli, UniProt P0A7Y4).
T1 construct: purchased New England Biolabs (NEB)
The test can be described thus: DNA nanoswitch RNase H inhibition assay (gel readout). It counts as biochemical. As to conditions: nanoswitch incubated with different concentrations of kanamycin, then RNase H (0.5 U) added; FIG. 4F; read-out: IC50 value, inhibition of the RNA cleavage activity of RNase H. The method, then: (§1) Locked nanoswitches, such as DNA-nanoswitch-nucleic acid constructs were first mixed with RNase H buffer (1× final) and placed at 37° C. 1 μl of RNase H (different units/μl) was added to 10 μl of locked nanoswitches such as DNA-nanoswitch-nucleic acid constructs and incubated at 37° C. For sensitivity experiments, samples were incubated for 1 hour at 37° C. For time series experiments, RNase H enzyme was added at different time points (from 16 mins to 0 min). After incubation, samples were mixed with 1 μl GelRed (1×final) and 2 μl loading dye (15% Ficoll, 0.1% bromophenol blue), and run on 0.8% agarose gels. A similar protocol was used for the other enzymes.
(§2) Nanoswitches were run in 0.8% agarose gels, cast from molecular biology grade agarose (Fisher BioReagents) dissolved in 0.5×Tris-borate EDTA (TBE). Gels were typically run at 75 V (constant voltage) at room temperature. Samples were pre-stained by mixing 1× GelRed stain with the samples before loading. Gels were imaged with a Bio-Rad Gel Doc XR+gel imager and analyzed using ImageJ.
Next, the potential of assays of the present disclosure was tested for screening RNase H inhibitors. […] To further make a rapid readout, a start-to-finish assay was performed within 15 mins, by incubating the nanoswitches with RNase H for 5 mins followed by agarose gel electrophoresis for 10 mins (FIG. 4G). […]

Test [2] relates to locked nanoswitches (RNA lock strand). The test can be described thus: DNA nanoswitch RNase activity assay, panel of RNases. The settings on record: agarose gel readout, FIG. 4E. It counts as biochemical. As for the experimental part:
as §1, §2
As a step toward testing ribonuclease presence in biological samples, a known concentration of RNase H was spiked into fetal bovine serum (FBS) and cell lysates extracted from human (HeLa) and murine (C2C12) cell lines. RNase detection was preserved in 10% FBS and cell lysates with the unlocking of the DNA nanoswitch in both biofluids (FIGS. 4B-4C).

A word on the IC50: it is the point on the concentration scale where inhibition reaches its midpoint.

T1 sequence (P0A7Y4 whole entry): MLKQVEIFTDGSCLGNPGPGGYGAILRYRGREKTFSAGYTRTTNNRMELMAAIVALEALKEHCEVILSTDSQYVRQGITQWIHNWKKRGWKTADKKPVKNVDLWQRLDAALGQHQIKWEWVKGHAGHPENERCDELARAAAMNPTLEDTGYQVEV

Consider `NC[C@H]1O[C@H](O[C@H]2[C@H](O)[C@@H](O[C@H]3O[C@H](CO)[C@@H](O)[C@H](N)[C@H]3O)[C@H](N)C[C@@H]2N)[C@H](O)[C@@H](O)[C@@H]1O` [kanamycin], for which the IC50 in test [1] amounted to 30.6 mM.

B1: RNase A: endonucleases from Enzyme Class EC 3.1.27.5 (protein, UniProt P61823 27-150, looked up)
Ribonuclease pancreatic: KETAAAKFERQHMDSSTSAASSSNYCNQMMKSRNLTKDRCKPVNTFVHESLADVQAVCSQKNVACKNGQTNCYQSYSTMSITDCRETGSSKYPNCAYKTTQANKHIIVACEGNPYVPVHFDASV
For the molecule B1, the “response of the locked nanoswitches (unlooping) to RNases” value in test [2] is “high levels of unlooping”.

B2: RNase T: ribonuclease enzyme purchased from New England Biolabs (protein, UniProt P30014 1-215, looked up)
Ribonuclease T: MSDNAQLTGLCDRFRGFYPVVIDVETAGFNAKTDALLEIAAITLKMDEQGWLMPDTTLHFHVEPFVGANLQPEALAFNGIDPNDPDRGAVSEYEALHEIFKVVRKGIKASGCNRAIMVAHNANFDHSFMMAAAERASLKRNPFHPFATFDTAALAGLALGQTVLSKACQTAGMDFDSTQAHSALYDTERTAVLFCEIVNRWKRLGGWPLSAAEEV
Take B2: the “response of the locked nanoswitches (unlooping) to RNases” value in test [2] is “no activity”.

The record behind these values is US20220026429A1, “COMPOSITIONS AND METHODS OF ALTERING A NUCLEIC ACID WITH RIBONUCLEASE” (The Research Foundation for the State University of New York, priority 2020, published 2022).
